Patent US20230220042A1 (SHANGHAI JIAO TONG UNIVERSITY SCHOOL OF MEDICINE, published 2023)

Target: T1, Biotin-FcγRIIB (human, UniProt P31994 43-217, limits assumed, biotin-labelled)
T1 construct: Bought, biotin-labelled; used at 1 µg/ml for staining and sorting; also called human FcγRIIB; CD32b
T1 sequence (looked up): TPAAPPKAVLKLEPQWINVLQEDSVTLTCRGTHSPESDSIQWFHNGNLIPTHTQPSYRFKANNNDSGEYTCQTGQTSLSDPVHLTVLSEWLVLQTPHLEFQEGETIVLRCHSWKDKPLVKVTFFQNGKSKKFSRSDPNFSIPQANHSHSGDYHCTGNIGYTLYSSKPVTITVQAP
Test: magnetic sorting on biotin-FcγRIIB with unlabelled activating FcγRs, NGS; Library2
Method: 3T3 cells were collected by trypsin digestion, and a single cell suspension was prepared. […] The cells were incubated for 15 minutes on ice and then washed twice with MACS buffer and re-suspended in 100 μl MACS buffer. Twenty-five μl anti-Biotin magnetic beads were added, and the cells were incubated for 15 minutes on ice and then washed once with MACS buffer and re-suspended to 500 μl, and added to the LS column put in the magnetic field. The effluent was collected, washed with 3 mL of MACS buffer and collected; The LS column was then removed out of the magnetic field, and 5 mL of MACS buffer was used to rapidly elute the remaining cells from the sorting column to collect positive cells, which are the high I/A ratio cells.
The high-FcγRIIB-affinity cells obtained from the above flow cytometry sorting are further sorted by magnetic-activated sorting. The cells are incubated with the mixture of Biotin-labeled FcγRIIB and non-labeled activating FcγRs, and then the labeled cells are sorted by anti-Biotin magnetic beads. The enrichment ratios after sorting relative to before sorting are analyzed by NGS.

B1: human IgG2 anti-mouse CD40 surface displayed antibody, Fc mutant H268N (antibody, name in EU numbering)
light chain (with the P2A rest): DTVLTQSPALAVSPGERVTISCRASDSVSTLMHWYQQKPGQQPKLLIYLASHLESGVPARFSGSGSGTDFTLTIDPVEADDTATYYCQQSWNDPWTFGGGTKLELKRTVAAPSVFIFPPSDEQLKSGTASVVCLLNNFYPREAKVQWKVDNALQSGNSQESVTEQDSKDSTYSLSSTLTLSKADYEKHKVYACEVTHQGLSSPVTKSFNRGECGSGATNFSLLKQAGDVEENPG
heavy chain: EVQLVESDGGLVQPGRSLKLPCAASGFTFSDYYMAWVRQAPTKGLEWVASISYDGSSTYYRDSVKGRFTISRDNAKSTLYLQMDSLRSEDTATYYCGRHSSYFDYWGQGVMVTVSSASTKGPSVFPLAPCSRSTSESTAALGCLVKDYFPEPVTVSWNSGALTSGVHTFPAVLQSSGLYSLSSVVTVPSSNFGTQTYTCNVDHKPSNTKVDKTVERKCCVECPPCPAPPVAGPSVFLFPPKPKDTLMISRTPEVTCVVVDVSNEDPEVQFNWYVDGVEVHNAKTKPREEQFNSTFRVVSVLTVVHQDWLNGKEYKCKVSNKGLPAPIEKTISKTKGQPREPQVYTLPPSREEMTKNQVSLTCLVKGFYPSDIAVEWESNGQPENNYKTTPPMLDSDGSFFLYSKLTVDKSRWQQGNVFSCSVMHEALHNHYTQKSLSLSPGKLEPPPSTVSNMATVAVLVVLGAAIVTGAVVAFVMKMRRRNTGGKGGDYALAPGSQTSDLSLPDCKVMVHDPHSLA
notes: as m1; positions are Eu numbers; copies: 2 + 2
- Enrichment factor (percentage after sorting/percentage before sorting): 2.31
- Increased factor (mutation enrichment factor/wild-type enrichment factor): 2.79
- Percentage after sorting/unbinding percentage: 662
- Percentage before sorting/unbinding percentage: 286

B2: human IgG2 anti-mouse CD40 surface displayed antibody, Fc mutant P271I (antibody, name in EU numbering)
light chain (with the P2A rest): DTVLTQSPALAVSPGERVTISCRASDSVSTLMHWYQQKPGQQPKLLIYLASHLESGVPARFSGSGSGTDFTLTIDPVEADDTATYYCQQSWNDPWTFGGGTKLELKRTVAAPSVFIFPPSDEQLKSGTASVVCLLNNFYPREAKVQWKVDNALQSGNSQESVTEQDSKDSTYSLSSTLTLSKADYEKHKVYACEVTHQGLSSPVTKSFNRGECGSGATNFSLLKQAGDVEENPG
heavy chain: EVQLVESDGGLVQPGRSLKLPCAASGFTFSDYYMAWVRQAPTKGLEWVASISYDGSSTYYRDSVKGRFTISRDNAKSTLYLQMDSLRSEDTATYYCGRHSSYFDYWGQGVMVTVSSASTKGPSVFPLAPCSRSTSESTAALGCLVKDYFPEPVTVSWNSGALTSGVHTFPAVLQSSGLYSLSSVVTVPSSNFGTQTYTCNVDHKPSNTKVDKTVERKCCVECPPCPAPPVAGPSVFLFPPKPKDTLMISRTPEVTCVVVDVSHEDIEVQFNWYVDGVEVHNAKTKPREEQFNSTFRVVSVLTVVHQDWLNGKEYKCKVSNKGLPAPIEKTISKTKGQPREPQVYTLPPSREEMTKNQVSLTCLVKGFYPSDIAVEWESNGQPENNYKTTPPMLDSDGSFFLYSKLTVDKSRWQQGNVFSCSVMHEALHNHYTQKSLSLSPGKLEPPPSTVSNMATVAVLVVLGAAIVTGAVVAFVMKMRRRNTGGKGGDYALAPGSQTSDLSLPDCKVMVHDPHSLA
notes: as for B1
- Enrichment factor (percentage after sorting/percentage before sorting): 2.63
- Increased factor (mutation enrichment factor/wild-type enrichment factor): 3.17

B3: human IgG2 anti-mouse CD40 surface displayed antibody, Fc mutant P271L (antibody, name in EU numbering)
light chain (with the P2A rest): DTVLTQSPALAVSPGERVTISCRASDSVSTLMHWYQQKPGQQPKLLIYLASHLESGVPARFSGSGSGTDFTLTIDPVEADDTATYYCQQSWNDPWTFGGGTKLELKRTVAAPSVFIFPPSDEQLKSGTASVVCLLNNFYPREAKVQWKVDNALQSGNSQESVTEQDSKDSTYSLSSTLTLSKADYEKHKVYACEVTHQGLSSPVTKSFNRGECGSGATNFSLLKQAGDVEENPG
heavy chain: EVQLVESDGGLVQPGRSLKLPCAASGFTFSDYYMAWVRQAPTKGLEWVASISYDGSSTYYRDSVKGRFTISRDNAKSTLYLQMDSLRSEDTATYYCGRHSSYFDYWGQGVMVTVSSASTKGPSVFPLAPCSRSTSESTAALGCLVKDYFPEPVTVSWNSGALTSGVHTFPAVLQSSGLYSLSSVVTVPSSNFGTQTYTCNVDHKPSNTKVDKTVERKCCVECPPCPAPPVAGPSVFLFPPKPKDTLMISRTPEVTCVVVDVSHEDLEVQFNWYVDGVEVHNAKTKPREEQFNSTFRVVSVLTVVHQDWLNGKEYKCKVSNKGLPAPIEKTISKTKGQPREPQVYTLPPSREEMTKNQVSLTCLVKGFYPSDIAVEWESNGQPENNYKTTPPMLDSDGSFFLYSKLTVDKSRWQQGNVFSCSVMHEALHNHYTQKSLSLSPGKLEPPPSTVSNMATVAVLVVLGAAIVTGAVVAFVMKMRRRNTGGKGGDYALAPGSQTSDLSLPDCKVMVHDPHSLA
notes: as for B1
- Enrichment factor (percentage after sorting/percentage before sorting): 4.43
- Increased factor (mutation enrichment factor/wild-type enrichment factor): 5.34
- Percentage after sorting/unbinding percentage: 143
- Percentage before sorting/unbinding percentage: 32.3

B4: human IgG2 anti-mouse CD40 surface displayed antibody, Fc mutant P271S (antibody, name in EU numbering)
light chain (with the P2A rest): DTVLTQSPALAVSPGERVTISCRASDSVSTLMHWYQQKPGQQPKLLIYLASHLESGVPARFSGSGSGTDFTLTIDPVEADDTATYYCQQSWNDPWTFGGGTKLELKRTVAAPSVFIFPPSDEQLKSGTASVVCLLNNFYPREAKVQWKVDNALQSGNSQESVTEQDSKDSTYSLSSTLTLSKADYEKHKVYACEVTHQGLSSPVTKSFNRGECGSGATNFSLLKQAGDVEENPG
heavy chain: EVQLVESDGGLVQPGRSLKLPCAASGFTFSDYYMAWVRQAPTKGLEWVASISYDGSSTYYRDSVKGRFTISRDNAKSTLYLQMDSLRSEDTATYYCGRHSSYFDYWGQGVMVTVSSASTKGPSVFPLAPCSRSTSESTAALGCLVKDYFPEPVTVSWNSGALTSGVHTFPAVLQSSGLYSLSSVVTVPSSNFGTQTYTCNVDHKPSNTKVDKTVERKCCVECPPCPAPPVAGPSVFLFPPKPKDTLMISRTPEVTCVVVDVSHEDSEVQFNWYVDGVEVHNAKTKPREEQFNSTFRVVSVLTVVHQDWLNGKEYKCKVSNKGLPAPIEKTISKTKGQPREPQVYTLPPSREEMTKNQVSLTCLVKGFYPSDIAVEWESNGQPENNYKTTPPMLDSDGSFFLYSKLTVDKSRWQQGNVFSCSVMHEALHNHYTQKSLSLSPGKLEPPPSTVSNMATVAVLVVLGAAIVTGAVVAFVMKMRRRNTGGKGGDYALAPGSQTSDLSLPDCKVMVHDPHSLA
notes: as for B1
- Enrichment factor (percentage after sorting/percentage before sorting): 2.74
- Increased factor (mutation enrichment factor/wild-type enrichment factor): 3.3
- Percentage after sorting/unbinding percentage: 22.2
- Percentage before sorting/unbinding percentage: 8.1

B5: human IgG2 anti-mouse CD40 surface displayed antibody, Fc mutant S267N (antibody, name in EU numbering)
light chain (with the P2A rest): DTVLTQSPALAVSPGERVTISCRASDSVSTLMHWYQQKPGQQPKLLIYLASHLESGVPARFSGSGSGTDFTLTIDPVEADDTATYYCQQSWNDPWTFGGGTKLELKRTVAAPSVFIFPPSDEQLKSGTASVVCLLNNFYPREAKVQWKVDNALQSGNSQESVTEQDSKDSTYSLSSTLTLSKADYEKHKVYACEVTHQGLSSPVTKSFNRGECGSGATNFSLLKQAGDVEENPG
heavy chain: EVQLVESDGGLVQPGRSLKLPCAASGFTFSDYYMAWVRQAPTKGLEWVASISYDGSSTYYRDSVKGRFTISRDNAKSTLYLQMDSLRSEDTATYYCGRHSSYFDYWGQGVMVTVSSASTKGPSVFPLAPCSRSTSESTAALGCLVKDYFPEPVTVSWNSGALTSGVHTFPAVLQSSGLYSLSSVVTVPSSNFGTQTYTCNVDHKPSNTKVDKTVERKCCVECPPCPAPPVAGPSVFLFPPKPKDTLMISRTPEVTCVVVDVNHEDPEVQFNWYVDGVEVHNAKTKPREEQFNSTFRVVSVLTVVHQDWLNGKEYKCKVSNKGLPAPIEKTISKTKGQPREPQVYTLPPSREEMTKNQVSLTCLVKGFYPSDIAVEWESNGQPENNYKTTPPMLDSDGSFFLYSKLTVDKSRWQQGNVFSCSVMHEALHNHYTQKSLSLSPGKLEPPPSTVSNMATVAVLVVLGAAIVTGAVVAFVMKMRRRNTGGKGGDYALAPGSQTSDLSLPDCKVMVHDPHSLA
notes: as for B1
- Enrichment factor (percentage after sorting/percentage before sorting): 2.91
- Increased factor (mutation enrichment factor/wild-type enrichment factor): 3.51
